Laboratory results reported in FireProtDB (doi:10.1002/prot.340090203).

B1: Tryptophan synthase alpha chain, P0A877 (parent)
chain: MERYESLFAQLKERKEGAFVPFVTLGDPGIEQSLKIIDTLIEAGADALELGIPFSDPLADGPTIQNATLRAFAAGVTPAQCFEMLALIRQKHPTIPIGLLMYANLVFNKGIDEFYAQCEKVGVDSVLVADVPVEESAPFRQAALRHNVAPIFICPPNADDDLLRQIASYGRGYTYLLSRAGVTGAENRAALPLNHLVAKLKEYNAAPPLQGFGISAPDQVKAAIDAGAAGAISGSAIVKIIEQHINEPEKMLAALKVFVQPMKAATRS

Variants of: B1
Conditions: Escherichia coli (strain K12), pH 9, Thermal, DSC, Sodium tetraborate 1 mM, reversible: yes, structure 1WQ5, whole UniProt chain shown

Row | Variant | ddG of mutation (higher = less stable) (54.1 °C, EDTA 1 mM) [kcal/mol] | heat capacity change of unfolding (54.1 °C, EDTA 1 mM) [kcal/mol/K] | Tm [°C] | change of melting temperature, mutant - wild type (higher = more stable) [°C] | heat capacity change of unfolding [kcal/mol/K] | unfolding enthalpy (calorimetric) [kcal/mol]
1 | MERYESLFAQLKERKEGAFVPFVTLGDPGIEQSLKIIDTLIEAGADALELGIPFSDALADGPTIQNATLRAFAAGVTPAQCFEMLALIRQKHPTIPIGLLMYANLVFNKGIDEFYAQCEKVGVDSVLVADVPVEESAPFRQAALRHNVAPIFICPPNADDDLLRQIASYGRGYTYLLSRAGVTGAENRAALPLNHLVAKLKEYNAAPPLQGFGISAPDQVKAAIDAGAAGAISGSAIVKIIEQHINEPEKMLAALKVFVQPMKAATRS [P57A] | 0.04 | 4.7 | 54 | -0.1 | 4.7 | 121
2 | MERYESLFAQLKERKEGAFVPFVTLGDPGIEQSLKIIDTLIEAGADALELGIPFSDPLADGATIQNATLRAFAAGVTPAQCFEMLALIRQKHPTIPIGLLMYANLVFNKGIDEFYAQCEKVGVDSVLVADVPVEESAPFRQAALRHNVAPIFICPPNADDDLLRQIASYGRGYTYLLSRAGVTGAENRAALPLNHLVAKLKEYNAAPPLQGFGISAPDQVKAAIDAGAAGAISGSAIVKIIEQHINEPEKMLAALKVFVQPMKAATRS [P62A] | 0.52 | 4.9 | – | – | – | –
3 | MERYESLFAQLKERKEGAFVPFVTLGDPGIEQSLKIIDTLIEAGADALELGIPFSDPLADGPTIQNATLRAFAAGVTPAQCFEMLALIRQKHPTIAIGLLMYANLVFNKGIDEFYAQCEKVGVDSVLVADVPVEESAPFRQAALRHNVAPIFICPPNADDDLLRQIASYGRGYTYLLSRAGVTGAENRAALPLNHLVAKLKEYNAAPPLQGFGISAPDQVKAAIDAGAAGAISGSAIVKIIEQHINEPEKMLAALKVFVQPMKAATRS [P96A] | 2 | 3.6 | 47.8 | -6.3 | 3.6 | 113
4 | MERYESLFAQLKERKEGAFVPFVTLGDPGIEQSLKIIDTLIEAGADALELGIPFSDPLADGPTIQNATLRAFAAGVTPAQCFEMLALIRQKHPTIPIGLLMYANLVFNKGIDEFYAQCEKVGVDSVLVADVAVEESAPFRQAALRHNVAPIFICPPNADDDLLRQIASYGRGYTYLLSRAGVTGAENRAALPLNHLVAKLKEYNAAPPLQGFGISAPDQVKAAIDAGAAGAISGSAIVKIIEQHINEPEKMLAALKVFVQPMKAATRS [P132A] | 0.92 | 4.8 | 51.5 | -2.6 | 4.8 | 121
